From US20250059275A1 (SHANGHAI NIGENE BIOLOGICAL SCIENCE AND TECHNOLOGY, published 2025)
Positions count from the first letter of the chain named.

T1: human TIGIT expressed on CHO-K1 cells (CHO-huTIGIT) (human, UniProt Q495A1 22-244)
T1 construct: whole, on cells; also called CHO-huTIGIT-eGFP; human TIGIT-expressing CHO cells
T1 sequence (looked up): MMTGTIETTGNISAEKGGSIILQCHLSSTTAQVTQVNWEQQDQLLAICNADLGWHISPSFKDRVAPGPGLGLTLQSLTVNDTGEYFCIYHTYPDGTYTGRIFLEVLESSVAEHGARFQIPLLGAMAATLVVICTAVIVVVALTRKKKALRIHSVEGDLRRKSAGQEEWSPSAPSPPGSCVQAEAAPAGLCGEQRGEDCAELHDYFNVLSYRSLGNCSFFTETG

T2: human TIGIT-HIS (Biointron, BI120) (human, UniProt Q495A1 22-141, limits assumed)
T2 construct: also called recombinant huTIGIT protein; recombinant human TIGIT protein; not shown: His tag
T2 sequence (looked up): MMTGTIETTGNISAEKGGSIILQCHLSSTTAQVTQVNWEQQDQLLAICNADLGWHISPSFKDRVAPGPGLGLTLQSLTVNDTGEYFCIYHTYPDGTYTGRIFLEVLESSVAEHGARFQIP

B1: JHH4A042-H3 (antibody, V domains shown)
VH: QVQLQQSGPGLVKPSQTLSLTCAISGDSVSSNSAAWNWIRQSPSRGLEWLGRTYFRSKWYNDYAVSVKSRITINPDTSKNQFSLQLNSMTPEDTAVYYCARERALYDILAGSFDYWGQGTLVTVSS
VL: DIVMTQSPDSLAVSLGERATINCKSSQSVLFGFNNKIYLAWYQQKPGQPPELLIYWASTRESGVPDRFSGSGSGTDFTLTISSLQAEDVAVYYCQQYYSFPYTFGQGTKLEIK
B2: JHH4A057 (antibody, V domains shown)
VH: QVQLVQSGSELKKPGASVKVSCKASGYTLTSHALNWVRQAPGQGLEWMGWINTNTGNPTYVQGFTGRFVFSLDTSVSTAYLQISSLKAEDTAVYYCARGYSSPPRMDVWGQGTTVTVSS
VL: EIVLTQSPGTLFLSPGERATLSCRASQSVSRNYLVWYQQKPGQAPRLLIYGASTRATGIPDRFSGSGSGTDFTLTIRRLEPEDFALYYCQQYGSSPFTFGQGTKLEIN
B3: JHH4B037a (antibody, V domains shown)
VH: EVQLVESGGGLVQPGRSLRLSCEASGFSFDDYAMHWVRQAPGKGLEWVSGISWNSVTIGYADSVKGRFTISRDNAKNSLYLEMNSLRTEDTALYYCAKELPTYRYYALDGWGQGTAVTVSS
VL: not shown
B4: JHH4B056a (antibody, V domains shown)
VH: EVQLVESGGGLVQPGRSLRLSCAASGFTFDDYAMHWVRQAPGKGLEWVSGISWNGIGIGYADSVKGRFTISRDNAKNSLYLQMNSLRAEDTALYYCAKDGGDYHYYGMDVWGQGTTVTVSS
VL: not shown
B5: JHH4A063 (antibody, V domains shown)
VH: B4 VH with A23T, T28N, A33G, G55S, G57S, Y60S, A88P, Y103H, H104Y
VL: DIMMTQSPLSLPVTPGEPASISCRSSQSLLHSNGYKYLNWYLQKPGQSPLLLIYLGSNRASGVPDRFSGSGSGTDFTLKISRVEAEDVGVYYCMQALQTPLTFGGGTKVEIK
notes: also called 4A063-hIgG1
B6: JHH4A042-H7 (antibody, V domains shown)
VH: B1 VH with A35V, F55Y
VL: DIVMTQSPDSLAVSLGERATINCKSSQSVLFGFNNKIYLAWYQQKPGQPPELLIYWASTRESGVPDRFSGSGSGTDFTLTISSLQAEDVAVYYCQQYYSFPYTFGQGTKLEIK
B7: JHH4B030a (antibody, V domains shown)
VH: QVQLQQSGPGLVKPSQTLSLTCAISGDSVSSNSAAWNWIRQSPSRGLEWLGRTYYRSKWYNDYAVSVKSRITINPDTSKNQFSLQLNSVTPEDTAVYYCARERGTYYDILTGDFDYWGQGTLVTVSS
VL: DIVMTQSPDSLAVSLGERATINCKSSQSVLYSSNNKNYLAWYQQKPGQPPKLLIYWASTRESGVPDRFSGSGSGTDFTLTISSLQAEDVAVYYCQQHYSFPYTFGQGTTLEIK
B8: JHH1B2-8C (antibody, V domains shown)
VH: QVQLQQSGPGLVKPSQTLSLTCAISGDSVSSNSAAWNWIRQSPSRGLEWLGRTYYRSKWYNDYAVSVKSRITINPDTSKNQFSLQLNSVTPEDTAVYYCAREGVLRYFDWLSGAFDIWGQGTMVTVSS
VL: not shown
B9: JHH4D035a (antibody, V domains shown)
VH: B4 VH with Y32F, Y95F, G100K, D102L, Y103R, H104R, T115I, T118I
VL: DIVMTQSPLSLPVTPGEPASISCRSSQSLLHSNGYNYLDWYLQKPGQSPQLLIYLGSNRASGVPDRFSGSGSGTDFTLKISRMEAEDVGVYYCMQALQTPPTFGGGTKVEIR
notes: Fully human antibody from TC-mAb mice
B10: JHH4E061a (antibody, V domains shown)
VH: B4 VH with V12I, R19T, A23V, Y80I, A88I, G100K, D102L, Y103R, H104R
VL: B5 VL with D1E, M3V, Q27R, K36N, N39D, L50Q, S81N, L101P
notes: as for B9

What follows are binders tested against T3, cynomolgus monkey TIGIT expressed on CHO-K1 cells (CHO-mkTIGIT) (cynomolgus monkey, UniProt A0A7N9I9V4 89-312) (assay: flow cytometry on CHO-mkTIGIT cells, anti-human IgG secondary antibody).
T3 construct: whole, on cells
Method: (§1) CHO-huTIGIT cells or CHO-mkTIGIT cells were implanted in 96 well plates. The antibodies of Example 2 were diluted to different concentrations respectively and added to 96 well plates covered with cells (100 μL/well), incubated at 4° C. (on ice) for 1 hour.
(§2) Washed the cells by adding 200 μL/well washing buffer, and centrifuged at 1600 rpm (˜260×g), 4° C. for 3 minutes, and discarded the supernatant, repeated twice. Add 30 μL washing buffer containing anti-human IgG secondary antibody (Jackson ImmunoResearch, #109-585-190, Alexa Fluor® 594 AffiniPure Goat Anti-Human IgG, Fcγ fragment specific) to each well, cultured cells at 4° C. (on ice) for 1 hour. Washing twice, transferred the cells to a flat bottom 96 well plate, and analyze the cells with CytoFLEX S. The antibody concentration was plotted with the logarithm of 10 as the abscissa and the median fluorescence value of two channels as the ordinate. The EC₅₀ (CHO-huTIGIT and CHO-mkTIGIT) and the peak value of the curve were compared.

T3 sequence (A0A7N9I9V4 entry or part of it): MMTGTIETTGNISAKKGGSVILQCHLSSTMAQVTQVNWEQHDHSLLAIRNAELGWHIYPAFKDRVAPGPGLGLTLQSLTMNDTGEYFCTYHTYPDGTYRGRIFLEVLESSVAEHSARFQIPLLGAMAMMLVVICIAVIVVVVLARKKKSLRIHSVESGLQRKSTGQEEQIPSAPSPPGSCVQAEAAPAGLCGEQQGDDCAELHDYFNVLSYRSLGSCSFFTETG

Binder	EC50 (read off the curve) [µg/mL]
B1	~1
B2	~0.009
B3	~0.005
B4	~0.009
B5	~0.004

These binders were tested against T3, cynomolgus monkey TIGIT expressed on … (assay: flow cytometry on CHO-mkTIGIT cells, anti-human IgG Fc Alexa Fluor 594).
Method: as §1, §2

Binder	EC50 [µg/mL]
B1	0.0792
B6	0.605
B2	0.00887
B3	0.00532
B4	0.00958
B5	0.00425
B7	0.857

What follows are binders tested against T1, human TIGIT expressed on CHO-K1 cells … (assay: flow cytometry competition on CHO-huTIGIT-eGFP cells; competitor biotinylated human CD155-Fc).
Method: (§3) CHO-huTIGIT-eGFP cells were implanted in V-bottom 96 well plates. The antibodies of Example 2 and reference antibodies were diluted to different concentrations respectively and added (100 μL/well) to the 96 well plate covered with cells (100%)), incubated at 4° C. for 1 hour.
(§4) Washed the cells by adding 200 μL/well washing buffer, and centrifuged at 1600 rpm (˜260×g), 4° C. for 3 minutes, and discarded the supernatant, repeated twice. […] (on ice) for 1 hour. Add 30 μL washing buffer contains streptavidin-594 (f.c.=10 μg/ml) into the well, then the cells were incubated at 4° C. for 30 minutes. Wash once and transfer the cells to a flat bottom 96 well plate, and analyze the cells with CytoFLEX S. Take the logarithm of antibody concentration (μg/mL) with the base of 10 as the abscissa and the intermediate fluorescence value corresponding to each antibody concentration as the ordinate.

Binder	IC50 [µg/mL]
B8	1.18
B1	0.8
B6	0.973
B2	0.899
B3	0.79
B4	1
B5	0.559
B7	0.777

These binders were tested against T2, human TIGIT-HIS (Biointron, BI120) (assay: Octet BLI tandem epitope competition, TIGIT-HIS loaded on the sensor, first antibody step).

Binder	binding result
B9	binds
B10	binds

Each binder was assayed against T1, human TIGIT expressed on CHO-K1 cells … (assay: flow cytometry on CHO-huTIGIT cells, anti-human IgG Fc Alexa Fluor 594).
Method: as §1, §2

Binder	EC50 [µg/mL]
B8	0.00549
B1	0.00463
B6	0.00602
B2	0.00412
B3	0.00388
B4	0.00459
B5	0.00349
B7	0.0043

What follows are binders tested against T1, human TIGIT expressed on CHO-K1 cells … (assay: flow cytometry blocking assay on CHO-huTIGIT-eGFP cells; blocked ligand: biotinylated human CD155-Fc).
Method: as §3, §4

Binder	IC50 (read off the curve) [µg/mL]
B8	~1
B1	~0.8
B6	~1
B2	~0.9
B3	~0.8
B4	~1
B5	~0.5
B7	~0.8
